Experimental data as given in patent US20240254222A1 (Bayer, published 2024).
Values belong to the binder of their own block, whether it stands above or below them.

Legend:
[1] = molecular target: T1, Sema3C (R&D Systems) (Homo sapiens (Human), UniProt Q99985 21-751); test: ELISA
T1 sequence: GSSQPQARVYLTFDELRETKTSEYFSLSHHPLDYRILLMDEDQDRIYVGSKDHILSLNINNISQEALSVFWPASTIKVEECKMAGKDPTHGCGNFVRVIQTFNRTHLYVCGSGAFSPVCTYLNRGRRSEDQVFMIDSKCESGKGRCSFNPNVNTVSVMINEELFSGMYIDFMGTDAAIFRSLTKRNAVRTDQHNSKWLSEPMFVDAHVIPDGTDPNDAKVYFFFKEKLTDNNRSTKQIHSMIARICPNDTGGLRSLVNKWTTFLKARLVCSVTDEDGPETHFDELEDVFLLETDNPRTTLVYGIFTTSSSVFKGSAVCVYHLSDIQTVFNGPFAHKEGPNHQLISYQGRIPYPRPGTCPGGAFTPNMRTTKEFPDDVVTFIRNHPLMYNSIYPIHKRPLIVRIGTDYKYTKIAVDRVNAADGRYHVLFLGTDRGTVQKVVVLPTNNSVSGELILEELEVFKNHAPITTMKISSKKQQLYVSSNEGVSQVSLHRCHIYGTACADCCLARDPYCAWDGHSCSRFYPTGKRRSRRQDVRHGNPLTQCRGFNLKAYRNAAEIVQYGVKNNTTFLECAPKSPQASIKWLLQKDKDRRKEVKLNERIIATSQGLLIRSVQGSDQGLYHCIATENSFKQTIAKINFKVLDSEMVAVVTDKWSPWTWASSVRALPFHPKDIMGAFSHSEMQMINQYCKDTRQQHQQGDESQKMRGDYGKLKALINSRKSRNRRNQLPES

[2] = molecular target: T2, Sema3E (R&D Systems) (Homo sapiens (Human), UniProt O15041 26-775); test: ELISA
T2 sequence: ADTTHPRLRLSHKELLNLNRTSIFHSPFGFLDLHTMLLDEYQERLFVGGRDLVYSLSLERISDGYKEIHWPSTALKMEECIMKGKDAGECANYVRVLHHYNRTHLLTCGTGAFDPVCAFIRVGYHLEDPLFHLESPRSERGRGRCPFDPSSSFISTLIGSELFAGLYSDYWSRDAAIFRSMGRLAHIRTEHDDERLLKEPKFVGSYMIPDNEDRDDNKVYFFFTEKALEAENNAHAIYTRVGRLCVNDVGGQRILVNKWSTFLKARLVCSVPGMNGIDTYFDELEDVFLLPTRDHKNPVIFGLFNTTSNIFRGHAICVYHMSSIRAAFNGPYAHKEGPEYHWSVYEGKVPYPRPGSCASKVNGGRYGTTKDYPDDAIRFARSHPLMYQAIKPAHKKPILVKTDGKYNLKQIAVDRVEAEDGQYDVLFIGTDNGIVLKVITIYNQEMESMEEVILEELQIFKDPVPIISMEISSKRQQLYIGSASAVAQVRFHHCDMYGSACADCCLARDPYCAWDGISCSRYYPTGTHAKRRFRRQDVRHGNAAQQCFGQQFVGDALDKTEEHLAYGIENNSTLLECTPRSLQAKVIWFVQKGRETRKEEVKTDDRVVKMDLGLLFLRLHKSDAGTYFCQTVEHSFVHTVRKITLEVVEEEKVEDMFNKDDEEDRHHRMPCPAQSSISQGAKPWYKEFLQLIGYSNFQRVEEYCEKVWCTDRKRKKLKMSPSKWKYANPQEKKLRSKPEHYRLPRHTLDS

[3] = molecular target: T3, Human Semaphorin3A-Fc (R&D Systems), TPP-13211 (human); test: competition ELISA on coated TPP-13211, competitor biotinylated TPP-15374
T3 construct: R&D Systems 1250-S3; also called recombinant human Sema3A-Fc chimera
Experimental: For screening in a competition ELISA setup, human Sema3a (TPP-13211) was coated onto 384-well plates (Greiner bio-one, 781077) with a concentration of 0.5 μg/ml in coating buffer (Carbonate-Basis pH 9.6, Candor 121125) over night at 10° C. After washing the plates 3 times with 50 μl PBS 0.05% Tween the plates were blocked with 50 μl Smart Block® (Candor 113500) for 1 h at 20° C. and washed again 3 times as described.
Subsequently, 20 μl of pre-mixed antibody solution was added to the plates and incubate for 18 h at 10° C. […] The total concentration of the added antibody solution was 0.25 μg/ml. During the incubation time the antibodies bound to the plates in a competitive manner as they compete for the same epitope on the human Sema3A protein.
After subsequent washing with 50 μl PBS 0.05% Tween for 3 times, 20 μl of a Streptavidin-HRP solution (R&D Systems, DY998, 1:200 in PBS 0.05% Tween 10% Smart Block) were added and incubated for 1 h and 20° C. followed by subsequent washing 3 times with 50 μl PBS 0.05% Tween and addition of 20 μl Amplex Red solution (Invitrogen A12222, 1:1000 in NaP-buffer 50 mM pH7.6 with 1:10000 of 30% H2O2). After a final incubation for 20 min at 20° C. the signal was determined using an emission wavelength of 595 nm and excitation of 530 nm.

T3 sequence (chain, as listed by the source limits assumed): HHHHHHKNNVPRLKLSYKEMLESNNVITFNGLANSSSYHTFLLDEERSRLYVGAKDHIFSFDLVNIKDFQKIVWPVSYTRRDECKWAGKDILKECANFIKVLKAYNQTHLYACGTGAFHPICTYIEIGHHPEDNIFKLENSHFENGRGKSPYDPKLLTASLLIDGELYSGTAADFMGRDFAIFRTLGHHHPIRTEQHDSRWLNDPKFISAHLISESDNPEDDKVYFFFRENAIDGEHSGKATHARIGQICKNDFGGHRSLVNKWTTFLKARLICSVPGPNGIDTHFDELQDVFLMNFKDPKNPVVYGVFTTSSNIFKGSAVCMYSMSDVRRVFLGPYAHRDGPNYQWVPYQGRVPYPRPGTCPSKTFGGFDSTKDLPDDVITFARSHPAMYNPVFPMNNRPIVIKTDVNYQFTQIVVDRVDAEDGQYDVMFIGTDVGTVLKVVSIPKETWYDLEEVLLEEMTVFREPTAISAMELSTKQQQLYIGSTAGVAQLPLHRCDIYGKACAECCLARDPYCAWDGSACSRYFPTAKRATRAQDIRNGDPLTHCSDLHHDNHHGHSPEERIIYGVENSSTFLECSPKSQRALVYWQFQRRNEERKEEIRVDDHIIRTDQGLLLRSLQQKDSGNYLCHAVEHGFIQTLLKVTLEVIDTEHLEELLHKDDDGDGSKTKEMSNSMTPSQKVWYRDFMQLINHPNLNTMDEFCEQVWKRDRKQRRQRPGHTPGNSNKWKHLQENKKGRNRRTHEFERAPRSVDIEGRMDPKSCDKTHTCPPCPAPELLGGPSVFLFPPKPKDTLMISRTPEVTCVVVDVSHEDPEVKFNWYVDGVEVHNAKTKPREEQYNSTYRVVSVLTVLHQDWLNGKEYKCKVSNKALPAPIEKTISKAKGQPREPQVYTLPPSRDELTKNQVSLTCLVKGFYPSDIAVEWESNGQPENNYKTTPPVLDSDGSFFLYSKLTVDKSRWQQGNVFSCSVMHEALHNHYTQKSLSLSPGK

binding result [1]: no binding
binding result [2]: no binding
VAL norm to TPP-9809 (1 to 1 ratio) [3]: 0.69
VAL norm to TPP-9809 (1 to 5 ratio) [3]: 0.41
B1: TPP-15374 (antibody, human IgG1, lambda, V domains shown)
VH: EVQLLESGGGLVQPGGSLRLSCAASGFTFSSYEMNWVRQAPGKGLEWVSGISWNSGSIGYADSVKGRFTISRDNSKNTLYLQMNSLRAEDTAVYYCARSGYSSSWFDPDFDYWGQGTLVTVSS
VL: QSVLTQPPSASGTPGQRVTISCTGSSSNIGAGYDVHWYQQLPGTAPKLLIYGNSNRPSGVPDRFSGSKSGTSASLAISGLRSEDEADYYCSSYAGSNPYVVFGGGTKLTVLG
notes: human IgG1; also called IgG1, hit from panning; parental mAb

binding result [1]: no binding
binding result [2]: no binding
B2: TPP-15370 (antibody, human IgG1, lambda, V domains shown)
VH: EVQLLESGGGLVQPGGSLRLSCAASGFTFSSYGMHWVRQAPGKGLEWVSAIGTGGDTYYADSVMGRFTISRDNSKNTLYLQMNSLRAEDTAVYYCARRDDYTSRDAFDVWGQGTLVTVSS
VL: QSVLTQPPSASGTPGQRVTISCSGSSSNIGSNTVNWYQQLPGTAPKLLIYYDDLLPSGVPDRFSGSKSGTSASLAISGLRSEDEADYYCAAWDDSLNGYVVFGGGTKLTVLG
notes: as for B1
